Target: genome-edited CXCR4 fused to Nluc (human (endogenous in HEK293FT)) (UniProt P61073)
Sequence of UniProt P61073 (P61073 whole entry, the tested form may be a part): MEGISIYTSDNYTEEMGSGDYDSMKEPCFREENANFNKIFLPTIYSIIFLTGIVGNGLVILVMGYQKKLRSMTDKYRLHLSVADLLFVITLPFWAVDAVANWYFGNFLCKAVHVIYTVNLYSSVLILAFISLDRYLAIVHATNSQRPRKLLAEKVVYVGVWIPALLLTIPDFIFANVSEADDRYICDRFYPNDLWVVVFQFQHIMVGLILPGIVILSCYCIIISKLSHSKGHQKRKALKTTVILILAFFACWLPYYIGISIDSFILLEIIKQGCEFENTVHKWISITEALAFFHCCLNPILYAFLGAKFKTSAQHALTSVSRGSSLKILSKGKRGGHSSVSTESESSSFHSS

inhibition of forskolin (5 µM)-mediated cAMP accumulation (HTRF) in HEK293FT cells expressing genome-edited CXCR4/Nluc: 8.6 pEC50
Substance: CXCL12 (from UniProt P48061 22-93) (ligand)

Source: article PMC5466623
